The results in this text go back to PMC7616709 (Molecular cell, 2024).

The series deals with the molecule itself.

One may read the stoichiometry N as a count of units in the complex or per binding partner.

B1: WDR26 (subunit of the recombinant WDR26-CTLH E3) (natural protein, human, UniProt Q9H7D7 1-661, looked up)
chain: MQANGAGGGGGGGGGGGGGGGGGGGQGQTPELACLSAQNGESSPSSSSSAGDLAHANGLLPSAPSAASNNSNSLNVNNGVPGGAAAASSATVAAASATTAASSSLATPELGSSLKKKKRLSQSDEDVIRLIGQHLNGLGLNQTVDLLMQESGCRLEHPSATKFRNHVMEGDWDKAENDLNELKPLVHSPHAIVVRGALEISQTLLGIIVRMKFLLLQQKYLEYLEDGKVLEALQVLRCELTPLKYNTERIHVLSGYLMCSHAEDLRAKAEWEGKGTASRSKLLDKLQTYLPPSVMLPPRRLQTLLRQAVELQRDRCLYHNTKLDNNLDSVSLLIDHVCSRRQFPCYTQQILTEHCNEVWFCKFSNDGTKLATGSKDTTVIIWQVDPDTHLLKLLKTLEGHAYGVSYIAWSPDDNYLVACGPDDCSELWLWNVQTGELRTKMSQSHEDSLTSVAWNPDGKRFVTGGQRGQFYQCDLDGNLLDSWEGVRVQCLWCLSDGKTVLASDTHQRIRGYNFEDLTDRNIVQEDHPIMSFTISKNGRLALLNVATQGVHLWDLQDRVLVRKYQGVTQGFYTIHSCFGGHNEDFIASGSEDHKVYIWHKRSELPIAELTGHTRTVNCVSWNPQIPSMMASASDDGTVRIWGPAPFIDHQNIEEECSSMDS
notes: WDR26, human, from human cDNA library (pFLN WDR26); The models 8QE8 and 8QBN exclude the CTLH-CRA^N domain of WDR26; also called WDR26 dimer
B1: the “stoichiometry N” value is 2.
